In the RNAGym collection of RNA variant scans (doi:10.1021/acssynbio.7b00057):

B1: Pistol ribozyme (parent)
chain: GGGUCGUUGUUCCAUAAUCGCGUGGAUAUGGCACGCAAGUUUCUACCGGGCACCGUAAAUGUCCGACUGGAGCCGUUCGGGCGGCUAUAAACAGACCUCAGGCCCGAAGCGUGGCGGCACCUGCCGCCGGUGGUAAAAAAGAUCGGAAGAGCACACGUCU

Variants of: B1
Assay: aptazyme ON/OFF ratio, guanine; higher = stronger switching; co-transcriptional cleavage with and without guanine

Compared with U7A U8A U10A C12A C13G, U8G G9A U10C is higher in “aptazyme ON/OFF ratio” value: 1.03 for the first, 2.29 for the second.

First: U7A G9A U10C U11C C13G
Second: U7A U8C G9U U10G U11C C12G
The “aptazyme ON/OFF ratio” value of the first is lower: 1.03 for the first, 1.32 for the second.

Compared with U7G U8G G9U U11C C12U C13U, U7G G9A U10G C12G C13G is lower in “aptazyme ON/OFF ratio” value: 1.33 for the first, 1.12 for the second.

Compared with U7A U11C C12A C13G, U8A C12G C13A is higher in “aptazyme ON/OFF ratio” value: 1.22 for the first, 1.48 for the second.

Going from U7G U8A C12A C13U to U8G G9A U10G U11C C12U, the “aptazyme ON/OFF ratio” value falls from 1.23 to 1.02.

First: U7G U8G G9A U10C U11G C12A C13G
Second: U7A U8A U11C C12A C13U
The “aptazyme ON/OFF ratio” value of the first is lower: 1.14 for the first, 1.69 for the second.

Compared with U7C U8C U10A U11A C12U C13A, U8C G9A U10G U11A C12G C13U is higher in “aptazyme ON/OFF ratio” value: 1.13 for the first, 1.22 for the second.

Going from G9C U10C U11C C12G to U7A G9U U10G U11G C12U C13G, the “aptazyme ON/OFF ratio” value rises from 1.04 to 1.15.

First: U7G U8C U10G U11G C13A
Second: U8C G9U U10C U11G C12G C13U
The “aptazyme ON/OFF ratio” value of the first is higher: 1.22 for the first, 1.07 for the second.

First: U7A G9U U10C U11C C12U C13A
Second: U7A U8C G9U U10A U11A C12G C13A
The “aptazyme ON/OFF ratio” value of the first is lower: 1.06 for the first, 1.15 for the second.

First: U7A U8C G9C U11G
Second: U7G U8A G9U U10G U11A C12U
The “aptazyme ON/OFF ratio” value of the first is higher: 1.09 for the first, 1.04 for the second.

First: U7G G9C U10G U11C C12G
Second: U7G G9A U10G U11A C13G
The “aptazyme ON/OFF ratio” value of the first is higher: 1.32 for the first, 1.06 for the second.

Compared with U7C U8A U10A C12U C13U, G9U U11G C12U is higher in “aptazyme ON/OFF ratio” value: 1.3 for the first, 1.99 for the second.

Compared with U7A U8G G9U U11C C13A, G9U U10G U11G C12A C13A is higher in “aptazyme ON/OFF ratio” value: 1.26 for the first, 1.28 for the second.

First: U7G U8C U10C U11G C12A
Second: U8G G9U U10A C12G C13U
The “aptazyme ON/OFF ratio” value of the first is higher: 1.24 for the first, 1.23 for the second.

Compared with U7C U8G G9C U10A U11G C12A C13U, U8G U11G C12A is higher in “aptazyme ON/OFF ratio” value: 1.18 for the first, 1.44 for the second.

Going from U7G C12G C13A to U8C G9U U10C U11A C12U C13A, the “aptazyme ON/OFF ratio” value rises from 1.08 to 1.13.

First: U7G U8A U10C U11A C13G
Second: U7A U8G G9C U10A C13U
The “aptazyme ON/OFF ratio” value of the first is lower: 1.23 for the first, 1.3 for the second.

First: U7G U8C G9U U10A U11C C12G
Second: U7G U8C G9U U11G C12A C13G
The “aptazyme ON/OFF ratio” value of the first is lower: 1.26 for the first, 1.35 for the second.

Compared with U7A U8G G9U U10C C13G, U7A U10C U11C C12A C13A is lower in “aptazyme ON/OFF ratio” value: 1.21 for the first, 1.06 for the second.

Compared with U7C U8G U10A U11C, U8G G9U U10C U11C C12G C13U is higher in “aptazyme ON/OFF ratio” value: 1.04 for the first, 1.09 for the second.

Going from U8C G9U U10G U11G C12U to U10A U11C C12G C13G, the “aptazyme ON/OFF ratio” value rises from 1.12 to 1.29.

Going from U7A U8C G9C U11C C13A to U8A G9U U10C U11C C12U, the “aptazyme ON/OFF ratio” value falls from 1.05 to 1.04.

First: U7A U8G G9C U10A U11C C12A C13G
Second: U7A U8A G9C U10A U11A C12A C13G
The “aptazyme ON/OFF ratio” value of the first is higher: 1.28 for the first, 1.07 for the second.

Going from U7C U8G G9A U10G U11A C13U to U7A U8A G9A U10C U11C C12A C13U, the “aptazyme ON/OFF ratio” value rises from 1.04 to 1.07.

Compared with U7A U8G G9C U10A U11C C12A, U7A U8C G9U U10A U11C C13U is lower in “aptazyme ON/OFF ratio” value: 1.29 for the first, 1.06 for the second.

Going from U7C U8A G9C U10C C13A to G9U C12U C13G, the “aptazyme ON/OFF ratio” value rises from 1.03 to 1.3.

U7G U8C G9U U10A C12A C13A and U7G G9U U10G U11G C13G are the same in “aptazyme ON/OFF ratio” value: 1.18 for the first, 1.18 for the second.

Going from G9A C12G C13U to U7C U8A G9C U10C C12U, the “aptazyme ON/OFF ratio” value falls from 1.44 to 1.15.

First: U7C U8G G9C U10C U11G C12G C13G
Second: U7C U8A G9C U10A U11G C12U C13G
The “aptazyme ON/OFF ratio” value of the first is higher: 1.09 for the first, 1.08 for the second.

Going from U7C U8G G9U U10C U11C C12U C13G to U7G G9A U10C C12G, the “aptazyme ON/OFF ratio” value rises from 1.05 to 1.38.

Going from U7A U8G G9A U10G U11G C12A C13A to U7G U8G G9A U10C U11C, the “aptazyme ON/OFF ratio” value falls from 1.65 to 1.08.

Compared with U7G U8A G9U U10A U11A C12A C13U, U7C G9A U10C U11G C12G C13A is higher in “aptazyme ON/OFF ratio” value: 1.04 for the first, 1.14 for the second.

Compared with U7A U8G G9U C12G C13U, U7A U8C G9U U10A U11A C12A C13G is lower in “aptazyme ON/OFF ratio” value: 1.33 for the first, 1.22 for the second.

Going from U7G U8C G9A U10G U11G C12U C13G to U7C U8C G9A U10C C12G C13G, the “aptazyme ON/OFF ratio” value falls from 1.22 to 1.21.

Going from U7C U8A G9U U10C C12U C13A to U7A U8C G9U U10C U11A C12G C13U, the “aptazyme ON/OFF ratio” value falls from 1.12 to 1.11.

Going from U7C G9C U11G C12U to G9A U10G U11C C12A C13G, the “aptazyme ON/OFF ratio” value rises from 1.08 to 1.15.

Compared with U7A U8C U10A C12U, U8G G9U U11C C12A is higher in “aptazyme ON/OFF ratio” value: 1.1 for the first, 1.12 for the second.

Compared with U7C U8G G9A U10A U11G C12U C13U, U7A U8G G9C U11G C13U is higher in “aptazyme ON/OFF ratio” value: 1.35 for the first, 1.4 for the second.

Compared with U7A U8A G9U C12G, U7G U8C G9U U11A C12G C13G is lower in “aptazyme ON/OFF ratio” value: 1.45 for the first, 1.13 for the second.

First: G9U U10C U11A C12G
Second: U7G G9A U10A U11G C12G
The “aptazyme ON/OFF ratio” value of the first is higher: 1.76 for the first, 1.13 for the second.

Going from U8A G9A U10G U11G C12U to U7C U8A G9C U10G U11A C12G C13U, the “aptazyme ON/OFF ratio” value falls from 1.2 to 1.13.
